This data set is described as follows: yeast display, Sf9 membrane polyspecificity reagent, FACS + sequencing; frameworks hold sequencing errors. Put shortly:
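Sorting gates, low and high (top ~1%), were placed on anti-HA fluorescence to track expression and on streptavidin fluorescence to track reagent binding. A clone's polyreactivity label is taken from the gate it came out of. The reagent was 10% biotinylated, detergent-solubilized Sf9 membrane, applied for 1 hour at 4 °C to galactose-induced yeast display cells.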
Turning to “QVQLVESGGGLVQAGGSLSLSCAASGRTFYANAMGWNRQAPGKERELVATITRGGSTNYADSVKGRFTISRDNAKNTVYLQMNSLKPEDTAVYYCAARSYTSSHRHYYWGQGTQVTVSS”, the “polyreactivity (PSR sort gate)” value is reported as “low polyreactivity”.

Consider “QVQLVESGGGLVQAGGSLSLSCAASGSIFDYNAMGWYRQAPGKEREVVAAIDGGSTYYADSVKGRFTISRDNAKNNVYLQMNSLKPEDTAVDYCAAEGFQADTYYWPMESWGQGTQVTVSS”, for which the “polyreactivity (PSR sort gate)” value was “low polyreactivity”.

On to “QVQLVESGGGLVQAGGSLSLSCAASGSIFFVNAMGWYRQAPGKERELVAAISRSGGRTYYADSVKGRFTISRDNAKNTVYFQMNSLKPEDTAVYYCAAEYNPGSYFTYDYWGQGTQVTVSS”, for which the “polyreactivity (PSR sort gate)” value is recorded as “low polyreactivity”.

Consider “QVQLVESGGGLVQAGGSLSLSCAASGSIFLYNAMGWYRPAPGKERELVAAISKSGGSTYYADSVKGRFTISRDNAKNTVYLQMNSLKPEDTAFYYCAAGYGRRIRYGSEYDYWGQGTQVTVSS”, for which the “polyreactivity (PSR sort gate)” value is “low polyreactivity”.

For “QVQLVESGGGLVQAGGSLSLSCAASGSIFWRNAMGWYRPAPGKERELVAAITSGGSTYYADSVKGRFTISRDNAKNTVYLQMNSLKPEDTAVYYCAAGYSYRYDYWGQGTQVTVSS”, the “polyreactivity (PSR sort gate)” value is given as “low polyreactivity”.

Take “QVQLVESGGGLVQAGGSLSLSCAASGSIFWYYAMGWYRPAPGKERELVATIDVSAGSTYADSVKGRFTIARDNAKNTVYLQMNSLKPEDTAVYDCNADHYPGEVFYVSSTRYEREYWGQGTQVTVSS”: the “polyreactivity (PSR sort gate)” value is given as “low polyreactivity”.

In the case of “QVQLVESGGGLVQAGGSLSLSCAASGSISDVYAMGGYRQAPGKERELVAAITSGASTYYADSVKGRFTISRDNAKNTVYLQMNSLKPEDTAVYYCAAGYSDWYYAAYNSWGQGTQVTVST”, the “polyreactivity (PSR sort gate)” value is “low polyreactivity”.

Consider “QVQLVESGGGLVQAGGSLSLSCAASGSISDVYPMGGYRQAPRKERELVAAITSGASTYYADSVKGRFTISRDNAKNTVYLQLNSLKTEDTAVYYCAAGYSDWYYADYNSWGQGTQVTVSS”, for which the “polyreactivity (PSR sort gate)” value is given as “low polyreactivity”.

Take “QVQLVESGGGLVQAGGSLSLSCAASGSNFVKNAMGWYRPAPGKERELVATISTGGSTYYADSVKGRFTISRDNAKNTVYLQMNSLKPEDTAVYYCATDFYPRFLLRSYRPYYYWGQGTQVTLSS”: the “polyreactivity (PSR sort gate)” value is recorded as “low polyreactivity”.

“QVQLVESGGGLVQAGGSLSLSCAASGSTFAFYAMGCYRQAPGKERDLVAASTRSAGSTYYADSVKGRFTISRDNATTTVYLPMNSLKREDTAVYYCAKYVSYSRTLYDYWGQGTQVTVSS”: the “polyreactivity (PSR sort gate)” value is “low polyreactivity”.

For the sequence “QVQLVESGGGLVQAGGSLSLSCAASGSTFARYAMGWYRQAPGKERELVAAISITGSTYYADSVKGRFTISRDNAKNTVYLQMKSLKPEDTAVYYCNVKSKYRYGYWGQGTQVTVSS”, the “polyreactivity (PSR sort gate)” value is recorded as “high polyreactivity”.

As for “QVQLVESGGGLVQAGGSLSLSCAASGSTFAYYAMGWYREAPGQERELVAGITWTGGSTYYADSVKGRFTISRDNAKNSVYLQMNSLKPEDTAVYYCAADRYFYEGDYWGQVTQVTVSS”, the “polyreactivity (PSR sort gate)” value is “low polyreactivity”.

As for “QVQLVESGGGLVQAGGSLSLSCAASGSTFYSNAMGWYRQAPGKERELVAAISIGGSTYYADSVKGRFTISRDNAKNTVYLQMNSLKPEDTAVYYCAVDYRHSSSWNAGRWEMYYWGQGTQVTVSS”, the “polyreactivity (PSR sort gate)” value is “low polyreactivity”.

Take “QVQLVESGGGLVQAGGSLSLSCAASGYIFGPYDMGWYRQAPGKERELVAVIDWSGGSTYYADSVKGRFTISRDNAKNTFYLQMNSLKPEDTAVYYCAADISWGVSQFDYWGQGTQVTVSS”: the “polyreactivity (PSR sort gate)” value is “low polyreactivity”.

For the sequence “QVQLVESGGGLVQAGGSLSLSCAASGYTFSYYAMGWYRQAPGKERELVARITYSGGSTYYADSVKGRFTISRDNAKNTGYLQIKSLKPEDTAVYYCAARLRYPYWYYYWGQGTQVTVSS”, the “polyreactivity (PSR sort gate)” value is recorded as “high polyreactivity”.

In the case of “QVQLVESGGGLVQAGGSLSLSCGASGRIFSLYAMGWYRQAPGKERELVAAMSWGAGSTYYADSVKGRFTISRDNAKNTVYLQMNSLKREATAVYYCATGRRYYYPYASYLKYGYWGQGTQVTVSS”, the “polyreactivity (PSR sort gate)” value is listed as “high polyreactivity”.

On to “QVQLVESGGGLVQAGGSLSLSSAASGFIFHTYAMRWYRQAPGKERELVASITWRGGRTYYADSVKGRFTISRDNAKNTVYLQLNSLNPVYTAVYYCAAVTFSYDGYDYWGQGTQVTVSS”, for which the “polyreactivity (PSR sort gate)” value is “low polyreactivity”.

For the sequence “QVQLVESGGGLVQAGGSLSLSSAASGPIFAYNAMGWYRQAPGKERELVAAISYSGGSTYYADSLKGRFTISRDNAKNTVYIQMNSLKPEDTAVYYCNAVYRYLTYRYDYWGQGTQVTVSS”, the “polyreactivity (PSR sort gate)” value is given as “high polyreactivity”.

With “QVQLVESGGGLVQAGGSLSVSCAASGFTFDRYAMGWYRQAPGKERELVAAISGSGDSTFYADSVKGRFTISRDNAKNTVYLQMNSLKPVDTAVYYCNAKRSFRWTYGYWGQGSQVTVSS”, the “polyreactivity (PSR sort gate)” value is listed as “high polyreactivity”.

Turning to “QVQLVESGGGLVQAGGSPRLSCAASGIIFQHNAMGWYRQAPGKERELVAAISSNGGRTFYADSVKGRFTISRDNAKNTVYLQMNSLKPEDTAVYYCAADRPAYGVGYWGQGTQVTVSS”, the “polyreactivity (PSR sort gate)” value is on record as “high polyreactivity”.

As for “QVQLVESGGGLVQAGGSPRLSCAASGSISNYYGMGWYRQAPRKERELVAAITWGGGRTNYADSVKGRFTISRDNAKNTVYLQMNSLKPEDTAVYYCAKVSVTHRYGAGGDYWGQGTQVTVSS”, the “polyreactivity (PSR sort gate)” value is “low polyreactivity”.

Regarding “QVQLVESGGGLVQAGGSRLLSCAASGGTFSFYAMGWYRQAPAKEREFVAAITASDGSTYYADSLTGRFTISRDNAKNTVYLQMNSLKPEDTAVYYCAADAYGYKFNSWVQGTQVTVSS”, the “polyreactivity (PSR sort gate)” value was “low polyreactivity”.

“QVQLVESGGGLVQAGGSRRIICAASGGTFYYYAMGWYRQAPGKERELVAAITWSGASTRYADSVKGRFTISRDNAKNTVYLQMNSLKPEDTAVYYCAARRVRPLVTYGYWGQGTQLTVSS”: the “polyreactivity (PSR sort gate)” value is “high polyreactivity”.

Consider “QVQLVESGGGLVQAGGSRRLICAASGSIFYTNAMGWYRPAPAKERELVARISFSDGTTNYADSVKGRFTISRDNAKNTVYVQMNSLKPEDTAVYYCATDLYGRPVRFDYWGQGTQVTVSS”, for which the “polyreactivity (PSR sort gate)” value is “low polyreactivity”.

On to “QVQLVESGGGLVQAGGSRRLSCAAAGSTFGVIVMGWYREAPGKEREVVAAITKSGGSTYYADSVKGRFTISRDNAKNTVYLQMNSLKPEDTAVYFCIDAWGREYDYWGQGTQVHVSS”, for which the “polyreactivity (PSR sort gate)” value is “high polyreactivity”.

“QVQLVESGGGLVQAGGSRRLSCAACGFIFEKNAMGWYRQAPGKERELVAAISGGGITNYADSVKGRFTISRDNEKKTVYLHMNSLKPQDTAVYYCAKTRRRLLTRYDYWGQGTQVTVSS”: the “polyreactivity (PSR sort gate)” value was “low polyreactivity”.

Regarding “QVQLVESGGGLVQAGGSRRLSCAASGRIFLGYTMGWYRQAPGKERELVAAISKSGDSTYYADSVKGRFTISRDNAKNTVYLQMNSLKPEDTAVYYCAAKRYRVGYGYWGQGTQVTVSS”, the “polyreactivity (PSR sort gate)” value is reported as “high polyreactivity”.

Turning to “QVQLVESGGGLVQAGGSRRLSCAASGRTFWAYAMRCYRQAPGKERELVAAITASGTRTYYADSVKGRFTISRDNAMNTDYLQRNRLKPQDTAGYYCAAERIWWAHAYPTYVANDYWGQGTQGTVSS”, the “polyreactivity (PSR sort gate)” value was “high polyreactivity”.

As to “QVQLVESGGGLVQAGGSRRLSCAASGSIFPQYAMGWYRQAPGKERELVAAITWSGSRTRYADSVKGRFTMSRDTAKNTGYLQMNSLKPEDTAVYDCAARFNGQTYYYWGQGTQVTLSS”, the “polyreactivity (PSR sort gate)” value was “high polyreactivity”.

As for “QVQLVESGGGLVQAGGSRRLSCAASGSIFSQYAMGWYRQAPGKEREFVAAINWSGGRTRYADSVKGRFTISRDNAKNTVYLQMNSLKPEDTAVYYCAKVYSLYSYSGRYDYWGQGTQVTVSS”, the “polyreactivity (PSR sort gate)” value is reported as “high polyreactivity”.

As for “QVQLVESGGGLVQAGGSRRLSCAASGSTFRRYAMGWSRQAPWKERELVAAISGRGGSTSYADSVKGRFTISRDNAKNTVYLQMNSLKPEDTAVYYCNARGYPSRFKYYYWGEGTQVTVSS”, the “polyreactivity (PSR sort gate)” value is recorded as “high polyreactivity”.

Take “QVQLVESGGGLVQAGGSRRLSCAASGSTFRYNTMGWYRQAPGKERDLVAAITGGGGSTYYADSVKGRFTISRDNAKNTVYLQMNSLKPEDTAVYYCAKRHWYDCYVSSYTTRYDYWGQGTQVTVSS”: the “polyreactivity (PSR sort gate)” value is “low polyreactivity”.

“QVQLVESGGGLVQAGGSRRLSCAASGSTFRYYAMGWYRQAPGKERELVAAISKRGGSTYYADSVKGRFTISRDNAKNTVYLQMNSLKPEDTAVYYCAAYGSVGLEYWGQGTQVTVSS”: the “polyreactivity (PSR sort gate)” value is given as “high polyreactivity”.

On to “QVQLVESGGGLVQAGGSRRLSCAASGSTFYGYAMGWYRQAPGKEREFVAAITTSGGSTYYADSVKGRFTISRDNAKNTVYLQMNSLKPEDTAVYYCDADAPSWYDRQYDYWGQGTQVTVSS”, for which the “polyreactivity (PSR sort gate)” value is “low polyreactivity”.

Turning to “QVQLVESGGGLVQAGGSRRLSCAASGSTFYGYAMGWYRQAPGKERELVAAIRRIGGTTYADSVKGRFTLSRDNAKNTVYLQMNSLKPEDTAVYYCAAYGFSYRYRYYYWGQGTQVTVSS”, the “polyreactivity (PSR sort gate)” value was “high polyreactivity”.

Consider “QVQLVESGGGLVQAGGSRRLSCAASGSTFYPYSMGWYRQAPGKESELVAAITWSGGRTYYADSVKGRFTISRDNANNTVYLQMNSLKPEDTAVYYCAADRPDGWVDYWGQGTQVTVSS”, for which the “polyreactivity (PSR sort gate)” value is “low polyreactivity”.

Take “QVQLVESGGGLVQAGGSRSLSCAASGFTFQGNVMGWYTQAPGKERELVAAISGGGGRTYYADYVKGRFTISRDNAKYTVYLQMNSLIPEDTAVYYCIVRLLGSNRAGVRCDYWGQGTQVTVSS”: the “polyreactivity (PSR sort gate)” value was “high polyreactivity”.

With “QVQLVESGGGLVQAGGSVRLSCAASGFTFWRYAMGWYRQAPGKEREFVAAITRSGVSTSNADSVKGRFTISRDNAKNTVYLQMNSLKPEDTAVYYCAALFYTSVPYPDYDYWGQGTQVTVSS”, the “polyreactivity (PSR sort gate)” value is recorded as “high polyreactivity”.

With “QVQLVESGGGLVQAGGSVRLSCAASGISFQYNALGWYRQAPGTERELVAGITWSGTSTYFADSVKGRFTISRDNAKNTVYLQLNSMKPEDTAVYYCAAVRGYRGYDYWGQGTQGTVSS”, the “polyreactivity (PSR sort gate)” value was “high polyreactivity”.

In the case of “QVQLVESGGGLVQAGGSVRLSCAASGRIFGYYAMGWYRQAPGKERELVAAINWNVGSTYYADSVKGRFTISRDNAKNTVYLQMNSLKPEDTAVYYCAAVGRYSRLLGKYDYWGQGTQVTVSS”, the “polyreactivity (PSR sort gate)” value is “low polyreactivity”.

Take “QVQLVESGGGLVQAGGSVRLSCAASGSIFGWYAMGWYRQGPGKEREWVATITDRGGRTYYADSVKGRFTISRDNAKNTVYLQMNSLKPEDTAVYYCAADDCPFEAEYDSWGQGTQVTVSS”: the “polyreactivity (PSR sort gate)” value is recorded as “low polyreactivity”.

The values above are taken from the nanobody polyreactivity screen of Harvey et al. (2022).
